Measurements published in paper PMC5117957 (Journal of immunology (Baltimore, Md. : 1950), 2016).

Target: gp120 (derived from isolate YU2) (HIV-1 isolate YU2, UniProt P35961)
Test: ELISA

B1: CD4bs MAb F105 (antibody, V domains shown)
VH: QVQLQESGPGLVKPSETLSLTCTVSGGSISSHYWSWIRQSPGKGLQWIGYIYYSGSTNYSPSLKSRVTISVETAKNQFSLKLTSMTAADTAVYYCARGPVPAVFYGDYRLDPWGQGTLVTVSS
VL: EIVLTQSPGTLSLSAGERATLSCRASQSVSSRYLAWYQQKPGQAPRLLIYGASSRATGIPDRFSGSGSGTDFTLTISRVEPEDFAVYYCQQYDNSVCTFGQGTKLEIK
binding result: binds
